In patent US5874272A, “Inosine-guanosine kinase” (Kyowa Hakko Kogyo Co., Ltd., priority 1998, dated 1999):

Experiments:
Km value determination [1] = substrate: Nc1nc2c(ncn2[C@@H]2O[C@H](CO)[C@@H](O)[C@H]2O)c(=O)[nH]1; assay: Km value determination; assay type: biochemical, Escherichia coli; details: other: 2 mM ATP, 10 mM MgSO4, 300 mM KCl, 0.1M HEPES buffer (pH 7.2)
Km value determination [2] = substrate: OC[C@H]1O[C@@H](n2cnc3c(O)ncnc32)[C@H](O)[C@@H]1O; assay: Km value determination; assay type: biochemical, Escherichia coli; details: other: 2 mM ATP, 10 mM MgSO4, 300 mM KCl, 0.1M HEPES buffer (pH 7.2)
[3] = pH, temperature and storage stability of the enzyme (residual activity); assay type: physicochemical, Escherichia coli
Method: This enzyme is treated at 4° C. for 16 hours in an aqueous solution containing 50 mM buffer (CHES; pH 10.0-9.0, TAPS; pH 8.2, HEPES; pH 8.3-7.3 or PIPES; pH 6.6) and 5 mM […] under both conditions in the absence of KCl and in the presence of 250 mM KCl. After the treatment, the activity is determined. Where treated in a pH range of 6.6 to 9.0, the treated enzyme maintains the residual activity of 90% or more than the activity of intact standard enzyme and stably keeps its activity in a pH range of 6.6 to 9.0. The addition of KCl accelerates storage stability.
A reaction solution composed of 20% glycerol, 50 mM Tris-hydrochloride buffer (pH 8), 5 mM β-mercaptoethanol and 100 mM NaCl is contacted with inosine-guanosine kinase in a concentration of about 10 μg protein/ml and treated at a temperature of 26° to 50° C. for 15 minutes to determine the residual activity at each temperature. As the result, since treatment at 40° C. or lower inactivates the enzyme by only 20% or less, the enzyme is stable up to 40° C. In contrast, the activity is rapidly lost by treatment at 50° C.
After 6 g of the -20° C.-stored cells which had been obtained in (6) was suspended in 24 ml of purification buffer [20% glycerol, 50 mM Tris-hydrochloride buffer (pH 8) and 5 mM β-mercaptoethanol], the suspension was disrupted with a homogenizer (manufactured by Brown Biotech Co., Ltd., glass bead diameter of 0.1 mm). The homogenate was centrifuged to give about 20 ml of the supernatant. Protamine sulfate was added to the supernatant in a final concentration of 0.4% followed by centrifugation. Thus high molecular nucleic acid components were removed as precipitates. The resulting supernatant was passed through Sephadex G-50 column which had been previously equilibrated with the purification buffer. The column was eluted with the purification buffer to give about 30 ml of desalted active fraction. After the fraction was passed through DEAE Sepharose column which had been previously equilibrated with the purification buffer, 60 ml of the purification buffer containing 0.1M NaCl was added thereto. Then the desired enzyme was eluted with 200 ml of the purification buffer having an NaCl linear density slope of 0.1M to 0.6M. From the active fractions eluted, 3 ml of the fraction having the highest enzyme concentration was collected. This active fraction was passed through Sephacryl S-200 column and eluted with the purification buffer containing 0.1M NaCl. By gel filtration, the active fraction was collected. Finally 10 ml of purified enzyme (1.4 μg protein/ml) was obtained. This purified enzyme was analyzed by SDS-polyacrylamide electrophoresis but no impurity was detected. The enzyme is stably stored at -20° C. in the purification buffer containing 0.1M NaCl.

[4] = Optimum pH and optimum temperature of the enzyme activity; assay type: biochemical, Escherichia coli; details: 30° C., 20 minutes; PIPES, HEPES, TAPS, CHES buffers 100 mM
Method: The activity of the inosine-guanosine kinase obtained is determined as follows. A reaction solution (hereafter referred to as reaction solution a) having a composition of 100 mM HEPES buffer (pH 7.2), 10 mM MgSO4, 50 mM KCl, 1 mM ATP and 1 mM inosine is brought into contact with the inosine-guanosine […] During the course of reaction, a part of the reaction solution is subjected to sampling intermittently. After the reaction solution is diluted to 1/20 with 0.2M NaH2 PO4 (adjusted the pH to 2.6 with H3 PO4) to stop the reaction, an amount of 5'-IMP in the stopped reaction solution is quantitatively determined by HPLC. Analysis by HPLC is made by using 0.2M NaH2 PO4 (pH 2.6) at a flow rate of 1 ml/min. as an eluting solution and Asahipak GS-320H (manufactured by Asahi Chemical Co., Ltd.) as a column. Detection of components was made by the absorbance at UV absorbance at 254 nm as an index. Quantitative determination was made by comparing absorbancy with that of the standard. […]
In the method for determination of inosine-guanosine kinase activity described above, the activity is determined by varying the temperature of 0° to 50° C. and 31° to 41° C. […]

B1: inosine-guanosine kinase (Escherichia coli K-12) (protein)
chain: MKFPGKRKSKHYFPVNARDPLLQQFQPENETSAAWVVGIDQTLVDIEAKVDDEFIERYGLSAGHSLVIEDDVAEALYQELKQKNLITHQFAGGTIGNTMHNYSVLADDRSVLLGVMCSNIEIGSYAYRYLCNTSSRTDLNYLQGVDGPIGRCFTLIGESGERTFAISPGHMNQLRAESIPEDVIAGASALVLTSYLVRCKPGEPMPEATMKAIEYAKKYNVPVVLTLGTKFVIAENPQWWQQFLKDHVSILAMNEDEAEALTGESDPLLASDKALDWVDLVLCTAGPIGLYMAGFTEDEAKRKTQHPLLPGAIAEFNQYEFSRAMRHKDCQNPLRVYSHIAPYMGGPEKIMNTNGAGDGALAALLHDITANSYHRSNVPNSSKHKFTWLTYSSLAQVCKYANRVSYQVLNQHSPRLTRGLPEREDSLEESYWDR
notes: made in house; host or cells: Escherichia coli
With B1 the Km (Km value determination [1]) was 6.1 µM, the Km (Km value determination [2]) was 2100 µM and the “residual activity after pH treatment” value ([3]; 4° C., 16 hours, pH range of 6.6 to 9.0, with or without 250 mM KCl, versus intact standard enzyme) was at least 90%. For the same molecule, the “temperature up to which the enzyme is stable” value ([3]; 15 minutes treatment, pH 8) was “up to 40 °C”, the “storage stability (in words)” value ([3]; -20° C. in purification buffer containing 0.1M NaCl) was “stably stored” and the “inactivation by heat treatment” value ([3]; treatment at 40° C. or lower, 15 minutes, pH 8) was at most 20%. For the same molecule, the “activity after heat treatment (in words)” value ([3]; treatment at 50° C., 15 minutes) was “rapidly lost” and the “optimum pH” value [4] was 6.9-8.2.
